Like-named read-outs stand apart in the source and are kept apart here. Blank lines part the entries; values can stand above or below the binder they belong to. Where no end group is shown, it is not given here.
What was measured:
[1] = target: T1, IL-18Rα-Fc (CD218a protein, Fc tag; ECD 19-329; ACROBiosystems, Inc, Cat. No. IL1-H5259) (UniProt Q13478 19-329); experiment: ELISA
T1 chain: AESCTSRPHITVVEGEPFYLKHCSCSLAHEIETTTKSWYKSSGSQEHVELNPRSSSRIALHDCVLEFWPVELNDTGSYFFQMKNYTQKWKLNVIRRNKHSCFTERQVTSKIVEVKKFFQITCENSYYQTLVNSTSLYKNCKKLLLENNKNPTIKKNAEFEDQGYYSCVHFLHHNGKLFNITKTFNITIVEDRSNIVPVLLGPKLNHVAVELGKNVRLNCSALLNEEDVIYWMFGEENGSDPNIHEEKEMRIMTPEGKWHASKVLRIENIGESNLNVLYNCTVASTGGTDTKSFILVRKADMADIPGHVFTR

[2] = target: T1, IL-18Rα-Fc (CD218a protein, Fc tag; ECD …); experiment: competition ELISA
[3] = target: T1, IL-18Rα-Fc (CD218a protein, Fc tag; ECD …); experiment: competition ELISA; tracer 7C06(bn1713)/NA-HRP 75 nM
[4] = target: T1, IL-18Rα-Fc (CD218a protein, Fc tag; ECD …); experiment: ELISA

EC50 [1]: 0.26 nM
Binder: GGFFECFYSPGHEWCIPSGG-biotin (cysteine pairing not given here) [biotinylated 7C06]

EC50 [4]: 0.11 nM
Binder: GGELCWRPFSFVDCEEGG-biotin (cysteine pairing not given here) [biotinylated alpha synthetic F1a Consensus Construct]

Second part, the binder before the results:

Binder: GGICWVPFHYLDELMCTGG-biotin (cysteine pairing not given here) [biotinylated 4D07]
EC50 [1]: 0.16 nM

Binder: GGREDMECFWSPGQVWCIPSYLGG [10D09]
IC50 [2]: 11 nM

Binder: GGFFECFYSPGHEWCIPSGG [7C06]
IC50 [3]: 350 nM

— US20240158457A1 (published 2024)
